Laboratory results taken from patent US20170291942A1.

Target: IL-6 protein (human) (UniProt P05231)
Assay: Luminex based assay, biotin-IL-6 binding to solid phase sIL-6R/gp80

Sequence of UniProt P05231 (P05231 30-212 limits assumed): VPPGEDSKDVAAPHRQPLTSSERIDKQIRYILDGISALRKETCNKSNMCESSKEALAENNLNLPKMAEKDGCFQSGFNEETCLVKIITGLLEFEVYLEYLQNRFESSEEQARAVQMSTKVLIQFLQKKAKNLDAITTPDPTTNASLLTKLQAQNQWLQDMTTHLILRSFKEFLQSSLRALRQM

## CLB.IL-6/16 (antibody)
  percent inhibition of bound biotin-IL-6: 62%
